In patent EP1073891B1, “METHOD OF PREDICTING RECEPTOR MODULATING ACTIVITY” (Duke University, priority 1998, dated 1999):

Assays:
ERα = target: T1, ERα (Homo sapiens, UniProt P03372); assay: Phage ELISA / fingerprint on ER immobilized on biotinylated ERE (Examples 2.3-2.5); type: binding; set-up: purchased PanVera Corporation, Madison, WI; key to binding activity, ERα and buffer / binding activity, ERα and estradiol / binding activity, ERα and tamoxifen / binding of peptide, Class Specific Fingerprint on ERα: semiquantitative scale of 0 to 7+; 1+: semiquantitative scale of 0 to 7+; 2+: semiquantitative scale of 0 to 7+; 3+: semiquantitative scale of 0 to 7+; 4+: semiquantitative scale of 0 to 7+; 5+: semiquantitative scale of 0 to 7+; 6+: semiquantitative scale of 0 to 7+; semiquantitative scale of 0 to 7+; details: for binding activity, ERα and estradiol: ERα and estradiol (1 µM); for binding activity, ERα and tamoxifen: ERα and tamoxifen (4-OH tamoxifen, 1 µM)
T1 sequence (P03372 1-595): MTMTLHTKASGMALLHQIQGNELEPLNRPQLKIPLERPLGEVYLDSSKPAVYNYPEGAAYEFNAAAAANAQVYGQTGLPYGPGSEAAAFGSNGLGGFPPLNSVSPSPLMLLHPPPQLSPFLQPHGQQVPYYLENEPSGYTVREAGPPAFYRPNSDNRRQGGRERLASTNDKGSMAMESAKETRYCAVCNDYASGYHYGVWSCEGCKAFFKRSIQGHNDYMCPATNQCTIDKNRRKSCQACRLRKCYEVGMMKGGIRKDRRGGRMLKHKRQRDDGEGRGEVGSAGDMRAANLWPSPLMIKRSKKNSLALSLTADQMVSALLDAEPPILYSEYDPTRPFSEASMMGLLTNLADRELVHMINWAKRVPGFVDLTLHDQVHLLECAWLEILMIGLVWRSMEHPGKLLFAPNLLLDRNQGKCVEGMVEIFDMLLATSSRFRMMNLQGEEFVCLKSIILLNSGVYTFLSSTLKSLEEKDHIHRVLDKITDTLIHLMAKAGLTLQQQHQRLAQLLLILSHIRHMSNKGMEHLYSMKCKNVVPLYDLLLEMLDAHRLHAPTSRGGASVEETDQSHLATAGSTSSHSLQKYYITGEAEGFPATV

ERβ = ERβ (Homo sapiens, UniProt Q92731); assay: as above; type: binding; set-up: purchased PanVera Corporation, Madison, WI; key: semiquantitative scale of 0 to 7+; 1+: semiquantitative scale of 0 to 7+; 2+: semiquantitative scale of 0 to 7+; 3+: semiquantitative scale of 0 to 7+; 4+: semiquantitative scale of 0 to 7+; 5+: semiquantitative scale of 0 to 7+; 6+: semiquantitative scale of 0 to 7+; semiquantitative scale of 0 to 7+; details: for binding activity, ERβ and Estradiol: ERβ and Estradiol (1 µM); for binding activity, ERβ and tamoxifen: ERβ and tamoxifen (4-OH tamoxifen, 1 µM)
Chain of ERβ (Q92731 whole entry): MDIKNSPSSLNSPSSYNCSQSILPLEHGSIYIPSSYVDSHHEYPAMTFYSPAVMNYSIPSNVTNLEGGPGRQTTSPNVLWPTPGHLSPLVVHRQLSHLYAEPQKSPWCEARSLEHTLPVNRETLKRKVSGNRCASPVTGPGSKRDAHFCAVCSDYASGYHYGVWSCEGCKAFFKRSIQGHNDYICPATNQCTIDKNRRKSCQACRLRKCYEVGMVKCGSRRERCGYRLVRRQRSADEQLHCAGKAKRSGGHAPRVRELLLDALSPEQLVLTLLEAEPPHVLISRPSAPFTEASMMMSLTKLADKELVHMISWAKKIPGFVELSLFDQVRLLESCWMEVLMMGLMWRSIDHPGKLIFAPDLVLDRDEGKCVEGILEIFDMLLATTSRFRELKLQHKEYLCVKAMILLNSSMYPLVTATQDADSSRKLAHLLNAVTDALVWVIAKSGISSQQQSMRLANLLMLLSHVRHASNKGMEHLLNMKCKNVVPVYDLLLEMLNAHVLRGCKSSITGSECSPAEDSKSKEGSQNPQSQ

Substance	binding activity, ERα and buffer (ERα)	binding activity, ERα and estradiol (ERα)	binding activity, ERα and tamoxifen (ERα)	binding activity, ERβ and Estradiol (ERβ)	binding activity, ERβ and buffer (ERβ)	binding activity, ERβ and tamoxifen (ERβ)	also measured
SRPGCLRGVWCLADTPPSR [Peptide 20t-β]	2+	2+	3+	6+	7+	7+	–
SSRGLLWDLLTKDSR [Peptide 1E-β]	5+	7+	5+	7+	5+	3+	–
SSDLHRDCLGVWCLSR [Peptide 17t-β]	1+	2+	2+	7+	7+	7+	–
SRNLLCLLDQEACSR [Peptide 17E-β]	5+	4+	4+	7+	3+	1+	–
SSHCHTRLCSLLTSR [Peptide 15E-β]	6+	6+	5+	7+	4+	–	–
SRLNGVFCHDSSDLWVCSR [Peptide 18t-β]	7+	6+	7+	3+	6+	7+	–
SSLKCLLNSNFCSR [Peptide 18E-β]	5+	6+	5+	7+	4+	1+	–
SSWDFRVPWWYNNSR [Peptide 31E-β]	3+	2+	3+	7+	3+	2+	–
SRLEDLLRGDSKPQSR [Peptide 7E-β]	4+	6+	3+	6+	5+	1+	–
SSVFTIMDGKVALSR [Peptide 1t-β]	3+	3+	7+	2+	3+	7+	–
SRLPPSVFSMCGSEVCLSR [Peptide 9t-β]	3+	3+	6+	2+	3+	7+	–
SSYDWQCPSWYCPAPPSSR [Peptide 29E-β]	3+	4+	3+	7+	7+	5+	–
SSTRLMCWLGSADTSHCSR [Peptide 28E-β]	4+	3+	3+	7+	3+	2+	–
SSRPSFTIPWWFDDPSRSR [Peptide 33E-β]	3+	3+	2+	7+	5+	2+	–
SSQWQAPWWYIDASR [Peptide 32E-β]	5+	4+	4+	7+	5+	2+	–
SSDLYSQMREFFQINLSR [Peptide 23t-β]	4+	4+	6+	6+	6+	7+	–
SRLHDLLLRDESPSR [Peptide 3E-β]	4+	5+	4+	6+	3+	1+	–
SRECVGGWCLAELSR [Peptide 18b-β]	2+	2+	2+	7+	7+	7+	–
SSWNSREFFLSQLSR [Peptide 5t-β]	3+	2+	5+	2+	2+	7+	–
SRPYCLGDVWCLDSR [Peptide 2t-β]	2+	2+	3+	6+	7+	7+	–
SSSLGPWRLSELESR [Peptide 16b-β]	2+	3+	3+	4+	7+	5+	–
SSRTLLEHYLLGGSR [Peptide 20E-β]	5+	5+	4+	7+	3+	2+	–
SSIKDFPNLISLLSR [Peptide 12E-β]	2+	2+	2+	7+	4+	1+	–
SSRLLCLLDAGQCSR [Peptide 16E-β]	3+	6+	3+	7+	6+	2+	–
SSGPWLMHYLGGGSR [Peptide 7b-β]	2+	4+	3+	7+	7+	2+	–
S R T W E S P L G T W E W S R (SRTWESPLGTWEWSR) [#13 ER]	–	–	–	–	–	–	binding of peptide, Class Specific Fingerprint on ERα (ERα; 4-OH Tamoxifen present during binding): 6+; binding of peptide, Class Specific Fingerprint on ERα (ERα; 16a-OH Estrone present during binding): 2+; binding of peptide, Class Specific Fingerprint on ERα (ERα; Clomiphene present during binding): 5+; binding of peptide, Class Specific Fingerprint on ERα (ERα; DES present during binding): 3+; binding of peptide, Class Specific Fingerprint on ERα (ERα; Estradiol present during binding): 2+; binding of peptide, Class Specific Fingerprint on ERα (ERα; Estriol present during binding): 2+; binding of peptide, Class Specific Fingerprint on ERα (ERα; ICI 182,780 present during binding): 2+; binding of peptide, Class Specific Fingerprint on ERα (ERα; Nafoxidine present during binding): 2+; binding of peptide, Class Specific Fingerprint on ERα (ERα; Premarin present during binding): 2+; binding of peptide, Class Specific Fingerprint on ERα (ERα; Progesterone present during binding): 4+; binding of peptide, Class Specific Fingerprint on ERα (ERα; Raloxifene present during binding): 2+; binding of peptide, Class Specific Fingerprint on ERα (ERα; buffer present during binding): 5+
